B1: E-box 12-mer C/5caC (dsDNA)
DNA 1: TGCCACGTGACC
DNA 2: GGTCACGTGGCA
modifications: 5caC at position 6 of strand 2
B2: E-box 12-mer C/C (dsDNA)
DNA 1: TGCCACGTGACC
DNA 2: GGTCACGTGGCA
B3: E-box 12-mer C/5fC (dsDNA)
DNA 1: TGCCACGTGACC
DNA 2: GGTCACGTGGCA
modifications: 5fC at position 6 of strand 2
B4: E-box 12-mer C/5mC (dsDNA)
DNA 1: TGCCACGTGACC
DNA 2: GGTCACGTGGCA
modifications: 5mC at position 6 of strand 2
B5: E-box 12-mer C/5hmC (dsDNA)
DNA 1: TGCCACGTGACC
DNA 2: GGTCACGTGGCA
modifications: 5hmC at position 6 of strand 2
B6: Control-2 (dsDNA)
DNA 1: GAGGCGTGGC
DNA 2: TTGCCACGCCTC
B7: Control-1 (dsDNA)
DNA 1: GTCAGCGCATGG
DNA 2: CCATGCGCTGAC

biological target: MAX H28R (Homo sapiens, UniProt P61244 1-160, H28R); experiment: fluorescence polarization
Sequence (P61244 whole entry H28R): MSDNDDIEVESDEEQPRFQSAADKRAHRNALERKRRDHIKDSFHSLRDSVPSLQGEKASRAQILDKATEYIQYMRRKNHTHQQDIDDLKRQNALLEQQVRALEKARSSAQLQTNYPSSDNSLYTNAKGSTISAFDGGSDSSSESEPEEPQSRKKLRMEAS

Binder	Kd [nM]
B1	< 5
B2	< 5
B3	< 5
B4	< 5
B5	< 5

biological target: T1, MAX full length (Homo sapiens, UniProt P61244 1-160); experiment: fluorescence polarization
T1 sequence (P61244 whole entry): as the sequence (P61244 whole entry H28R) above, with R28H counted along it

Binder	binding result
B6	no binding
B7	no binding

biological target: T1, MAX full length; experiment: fluorescence polarization; remark: another data set of the same source

Binder	binding signal [fold weaker than C]
B3	8
B4	> 13
B5	> 13
